# Measurements published in patent US20240141072A1 (published 2024).
# Positions count from the first letter of the chain named.
# T1: biotinylated human DLL3 protein expressed as a human IgG1 fusion protein (human, UniProt Q9NYJ7 27-492, limits assumed, biotinylated)
# T1 sequence: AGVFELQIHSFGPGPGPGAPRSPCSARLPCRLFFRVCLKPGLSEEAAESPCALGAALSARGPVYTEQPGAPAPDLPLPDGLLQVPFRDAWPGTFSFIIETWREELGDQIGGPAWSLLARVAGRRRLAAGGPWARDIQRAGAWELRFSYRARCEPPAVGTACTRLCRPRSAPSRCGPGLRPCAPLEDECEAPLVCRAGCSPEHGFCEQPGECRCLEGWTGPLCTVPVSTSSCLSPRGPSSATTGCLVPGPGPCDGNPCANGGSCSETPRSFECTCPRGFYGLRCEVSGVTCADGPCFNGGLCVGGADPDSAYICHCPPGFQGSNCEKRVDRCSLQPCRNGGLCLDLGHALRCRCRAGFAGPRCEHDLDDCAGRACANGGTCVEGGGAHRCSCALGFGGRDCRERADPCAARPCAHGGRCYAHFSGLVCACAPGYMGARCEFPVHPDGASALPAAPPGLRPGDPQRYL
# B1: 3F03 anti-DLL3 trispecific protein (other)
# chain: EVQLVESGGGLVQPGGSLTLSCAASGSSVSFLSMAWYRQAPGKKRELVAGISADGSTDYIDSVKGRFTISRDNAKNSVYLQMNSLRAEDTAVYYCYAYRWRTRYTYWGQGTLVTVSS
# notes: not shown: linker 1808, anti-albumin sdAb, linker 1808, anti-CD3 fragment, His6 1819
# B2: 3A01 anti-DLL3 trispecific protein (other)
# chain: B1 chain with S30K, R101T, T102R
# notes: as for B1
# B3: 2C01 anti-DLL3 trispecific protein (other)
# chain: EVQLVESGGGLVQPGGSLTLSCVASGSTASINAMGWYRRAPGKQRELVAGISSDGSKVYADSVKGRFTISRDNAKNSVYLQMNSLRAEDTAVYYCYYFRYVSGSSMRYWGQGTLVTVSS
# notes: as for B1
# B4: 2E09 anti-DLL3 trispecific protein (other)
# chain: B3 chain with T28V, A29S, D61S, V63A, Y100T, V101L
# notes: as for B1
# B5: 2C06 anti-DLL3 trispecific protein (other)
# chain: B3 chain with A29N, A60K, F98Y, Y100T
# notes: as for B1
# B6: 2G011 anti-DLL3 trispecific protein (other)
# chain: B3 chain with A29S, V48P, S53R
# notes: as for B1
# B7: 2G09 anti-DLL3 trispecific protein (other)
# chain: B3 chain with A29S, I51V, Y100T, M106A
# notes: as for B1
# B8: 2D05 anti-DLL3 trispecific protein (other)
# chain: B3 chain with A29S, S30R, Y100T, V101A
# notes: as for B1
# B9: 2F02 anti-DLL3 trispecific protein (other)
# chain: B3 chain with A29S, M34V, D61G, Y100T, S105Y
# notes: as for B1
# B10: 2E06 anti-DLL3 trispecific protein (other)
# chain: B3 chain with A29S, D61S, Y100T, S102R
# notes: as for B1
# B11: 2C09 anti-DLL3 trispecific protein (other)
# chain: EVQLVESGGGLVQPGGSLTLSCVPSGSTSNINAMGWYRRAPGKQRELPAGISSDGTKIYADSAKVPFTITRDNAKNSVYLQMNSLRAEDTAVYYCYYFRTVSGTSMRYWGQGTLVTVSS
# notes: as for B1
# B12: 2C02 anti-DLL3 trispecific protein (other)
# chain: B3 chain with A29S, M34V, A60V, Y100T, S102Y
# notes: as for B1
# B13: 2D011 anti-DLL3 trispecific protein (other)
# chain: B3 chain with S27T, A29S, Y100T, S102W
# notes: as for B1
# B14: 2F09 anti-DLL3 trispecific protein (other)
# chain: B3 chain with A29S, G35A, V58L, Y100T
# notes: as for B1
# B15: 2H04 anti-DLL3 trispecific protein (other)
# chain: B3 chain with A29S, G55T, Y100T, S105Y
# notes: as for B1
# B16: 2D012 anti-DLL3 trispecific protein (other)
# chain: B3 chain with S27K, A29S, A60T, Y100T, V101R
# notes: as for B1
# B17: 2G04 anti-DLL3 trispecific protein (other)
# chain: B3 chain with A29S, K57L, Y100I, V101L
# notes: as for B1
# B18: 2H011 anti-DLL3 trispecific protein (other)
# chain: B3 chain with A29S, S30R, Y100R
# notes: as for B1
# B19: 2E08 anti-DLL3 trispecific protein (other)
# chain: B3 chain with T28R, A29S, S53A, Y100T, V101Q
# notes: as for B1
# B20: 2D010 anti-DLL3 trispecific protein (other)
# chain: B3 chain with A29S, Y100T, V101K
# notes: as for B1
# B21: 2C08 anti-DLL3 trispecific protein (other)
# chain: B3 chain with A29S, S30R, A60Q, Y100R
# notes: as for B1
# B22: 2H010 anti-DLL3 trispecific protein (other)
# chain: B3 chain with A29S, V48A, V58L, Y100T
# notes: as for B1
# B23: 2D03 anti-DLL3 trispecific protein (other)
# chain: B3 chain with S27K, A29S, Y100T, S104V
# notes: as for B1
# B24: 2D09 anti-DLL3 trispecific protein (other)
# chain: B3 chain with S27T, A29S, V48A, A60N, Y100T, S102R
# notes: as for B1
# B25: 2H07 anti-DLL3 trispecific protein (other)
# chain: B3 chain with A29S, M34V, K57T, Y100T, S104H
# notes: as for B1
# B26: 2H03 anti-DLL3 trispecific protein (other)
# chain: B3 chain with A29S, G35A, Y100Q
# notes: as for B1
# B27: 2C07 anti-DLL3 trispecific protein (other)
# chain: B3 chain with A29S, G35A, Y100S
# notes: as for B1
# B28: 2F08 anti-DLL3 trispecific protein (other)
# chain: B11 chain with P24A, T28K, N30S, D54N, I58V, P66R, T70S, S102L
# notes: as for B1
# B29: 2D06 anti-DLL3 trispecific protein (other)
# chain: B3 chain with A29S, A60S, Y100T, M106S
# notes: as for B1
# B30: 2H06 anti-DLL3 trispecific protein (other)
# chain: B3 chain with A29S, S30T, Y100T, V101A
# notes: as for B1
# B31: 2H08 anti-DLL3 trispecific protein (other)
# chain: B3 chain with A29S, V48A, S53K, V63A, Y100T, M106S
# notes: as for B1
# B32: 2D04 anti-DLL3 trispecific protein (other)
# chain: B3 chain with A29S, M34V, A60R, Y100T, S102Q
# notes: as for B1
# B33: 2F07 anti-DLL3 trispecific protein (other)
# chain: B3 chain with A29S, M34V, K57S, Y100T, G103T
# notes: as for B1
# B34: 2D07 anti-DLL3 trispecific protein (other)
# chain: B3 chain with A29S, M34V, S56T, A60R, Y100T, S102Q
# notes: as for B1
# B35: 2G07 anti-DLL3 trispecific protein (other)
# chain: B3 chain with A29S, G35A, Y100T, S102Q
# notes: as for B1
# B36: 2F06 anti-DLL3 trispecific protein (other)
# chain: B3 chain with A29S, M34Y, K57A, Y100T, V101H
# notes: as for B1
# B37: 2D02 anti-DLL3 trispecific protein (other)
# chain: B3 chain with A29S, M34L, K57L, Y100I
# notes: as for B1
# B38: 2F01 anti-DLL3 trispecific protein (other)
# chain: B3 chain with A29S, A60S, Y100L
# notes: as for B1
# B39: 2G03 anti-DLL3 trispecific protein (other)
# chain: B3 chain with A29S, K57L, Y100T, Y108A
# notes: as for B1
# B40: 2F03 anti-DLL3 trispecific protein (other)
# chain: B3 chain with A29S, G35A, V48A, G55N, Y100T, S102G
# notes: as for B1
# B41: 2C010 anti-DLL3 trispecific protein (other)
# chain: B3 chain with A29S, S30K, G55R, Y100T, S102A
# notes: as for B1
# B42: 2G08 anti-DLL3 trispecific protein (other)
# chain: B3 chain with A29S, S30Y, Y100T, S104Q, R107G
# notes: as for B1
# Target: T1, biotinylated human DLL3 protein …
# Test: Octet BLI, single 50 nM
# Description: Using the conditioned medium with known concentrations of the anti-DLL3 trispecific proteins, the binding affinities of the anti-DLL3 trispecific proteins toward human DLL3 protein were measured using a method where biotinylated version of human DLL3 protein were expressed as a human IgG1 fusion protein, and the binding affinity measurement was carried out in an Octet instrument with streptavidin tips.
row,Kd,Binder
1,13 nM,B1
2,16 nM,B2
3,12 nM,B3
4,8.5 nM,B4
5,6.7 nM,B5
6,13 nM,B6
7,8 nM,B7
8,8.3 nM,B8
9,9.6 nM,B9
10,11 nM,B10
11,6.4 nM,B11
12,4.1 nM,B12
13,5.4 nM,B13
14,6.5 nM,B14
15,6.3 nM,B15
16,4.9 nM,B16
17,11 nM,B17
18,5 nM,B18
19,17 nM,B19
20,7.3 nM,B20
21,6.1 nM,B21

row,Kd,Binder
1,6.4 nM,B22
2,6.8 nM,B23
3,8.2 nM,B24
4,6.1 nM,B25
5,5.3 nM,B26
6,6.2 nM,B27
7,20 nM,B28
8,6.6 nM,B29
9,7.9 nM,B30
10,18 nM,B31
11,6.2 nM,B32
12,8 nM,B33
13,6 nM,B34
14,6.5 nM,B35
15,10 nM,B36
16,14 nM,B37
17,9.2 nM,B38
18,5.6 nM,B39
19,5.9 nM,B40
20,7.6 nM,B41
21,4.1 nM,B42
